In IntAct's records for PubMed 19581362:

B1: Chemotaxis protein CheA (Escherichia coli (strain K12)), P07363 (parent)
chain: MSMDISDFYQTFFDEADELLADMEQHLLVLQPEAPDAEQLNAIFRAAHSIKGGAGTFGFSVLQETTHLMENLLDEARRGEMQLNTDIINLFLETKDIMQEQLDAYKQSQEPDAASFDYICQALRQLALEAKGETPSAVTRLSVVAKSEPQDEQSRSQSPRRIILSRLKAGEVDLLEEELGHLTTLTDVVKGADSLSAILPGDIAEDDITAVLCFVIEADQITFETVEVSPKISTPPVLKLAAEQAPTGRVEREKTTRSNESTSIRVAVEKVDQLINLVGELVITQSMLAQRSSELDPVNHGDLITSMGQLQRNARDLQESVMSIRMMPMEYVFSRYPRLVRDLAGKLGKQVELTLVGSSTELDKSLIERIIDPLTHLVRNSLDHGIELPEKRLAAGKNSVGNLILSAEHQGGNICIEVTDDGAGLNRERILAKAASQGLTVSENMSDDEVAMLIFAPGFSTAEQVTDVSGRGVGMDVVKRNIQKMGGHVEIQSKQGTGTTIRILLPLTLAILDGMSVRVADEVFILPLNAVMESLQPREADLHPLAGGERVLEVRGEYLPIVELWKVFNVAGAKTEATQGIVVILQSGGRRYALLVDQLIGQHQVVVKNLESNYRKVPGISAATILGDGSVALIVDVSALQAINREQRMANTAA
partner: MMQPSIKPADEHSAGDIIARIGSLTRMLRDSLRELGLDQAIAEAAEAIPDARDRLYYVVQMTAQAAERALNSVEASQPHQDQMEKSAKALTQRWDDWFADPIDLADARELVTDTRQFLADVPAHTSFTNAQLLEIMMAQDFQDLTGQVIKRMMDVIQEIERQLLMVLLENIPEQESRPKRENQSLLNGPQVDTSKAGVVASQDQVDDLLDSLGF

Variants of: B1
Details: with chez_ecoli cheZ

Effect of a mutation on the interaction, decreasing interaction strength:
L123C
L126C
R124C
Y118C
